Results as given in PMC9267055.
One block for each molecule: values may come before it.

How the values were obtained:
[1] = target: GPI-APs (transferred from wildtype EL cells to ManN-treated human adipocytes) (human (endogenous in K562 EL cells))
[2] = target: GPI-APs (transferred from wildtype EL cells to ManN-treated human adipocytes) (human (endogenous in K562 EL cells)); remark: listed apart in the source

decrease in transfer of GPI-APs from wildtype EL cells to ManN-treated human adipocytes in transwell co-culture (1 week), read by SAW sensing of acceptor PM; BSA 50 mg/mL, final dilution 1:75 [1]: 35%
Molecule: BSA (fraction V, defatted) (from UniProt P02769 25-607) (natural protein)

transfer of GPI-APs from wildtype EL cells to ManN-treated human adipocytes in transwell co-culture (1 week), read by SAW sensing of acceptor PM; GPLD1 100 mU/mL (% of serum inhibition) [2]: 70
B1: serum GPLD1 (enzyme)
chain: CGLSTHVEIGHRALEFLQLHNGRVNYRELLLEHQDAYQAGIVFPDCFYPSICKGGKFHDVSESTHWTPFLNASVHYIRENYPLPWEKDTEKLVAFLFGITSHMAADVSWHSLGLEQGFLRTMGAIDFHGSYSEAHSAGDFGGDVLSQFEFNFNYLARRWYVPVKDLLGIYEKLYGRKVITENVIVDCSHIQFLEMYGEMLAVSKLYPTYSTKSPFLVEQFQEYFLGGLDDMAFWSTNIYHLTSFMLENGTSDCNLPENPLFIACGGQQNHTQGSKMQKNDFHRNLTTSLTESVDRNINYTERGVFFSVNSWTPDSMSFIYKALERNIRTMFIGGSQLSQKHVSSPLASYFLSFPYARLGWAMTSADLNQDGHGDLVVGAPGYSRPGHIHIGRVYLIYGNDLGLPPVDLDLDKEAHRILEGFQPSGRFGSALAVLDFNVDGVPDLAVGAPSVGSEQLTYKGAVYVYFGSKQGGMSSSPNITISCQDIYCNLGWTLLAADVNGDSEPDLVIGSPFAPGGGKQKGIVAAFYSGPSLSDKEKLNVEAANWTVRGEEDFSWFGYSLHGVTVDNRTLLLVGSPTWKNASRLGHLLHIRDEKKSLGRVYGYFPPNGQSWFTISGDKAMGKLGTSLSSGHVLMNGTLKQVLLVGAPTYDDVSKVAFLTVTLHQGGATRMYALTSDAQPLLLSTFSGDRRFSRFGGVLHLSDLDDDGLDEIIMAAPLRIADVTSGLIGGEDGRVYVYNGKETTLGDMTGKCKSWITPCPEEKAQYVLISPEASSRFGSSLITVRSKAKNQVVIAAGRSSLGARLSGALHVYSLGSD
